In article PMC6799845, “On-chip structure-switching aptamer-modified magnetic nanobeads for the continuous monitoring of interferon-gamma ex vivo”:

Experiments:
[1] = target: PSA (UniProt P07288 25-261); experiment: electrochemistry (on-chip bead-bound aptamer); 1 mg/mL; no significant signal (<15%); Buffer C: 100 mM Tris-HCl pH 7.4, 100 mM NaCl, 1 mM MgCl2, 5 mM KCl; room temperature (optimized conditions stated as pH 7.5, 100 mM salt); conditions: protein: commercial; label: 5'-ferrocene; 3'-biotin (on streptavidin magnetic beads); hairpin
PSA, sequence (P07288 25-261): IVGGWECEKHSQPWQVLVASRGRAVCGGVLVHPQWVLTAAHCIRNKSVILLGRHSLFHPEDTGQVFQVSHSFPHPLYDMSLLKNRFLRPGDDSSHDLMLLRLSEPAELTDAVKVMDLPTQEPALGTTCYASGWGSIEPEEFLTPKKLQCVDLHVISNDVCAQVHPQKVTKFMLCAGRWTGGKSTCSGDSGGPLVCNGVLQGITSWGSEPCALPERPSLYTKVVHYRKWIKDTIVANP

[2] = target: IL-6 (UniProt P05231 30-212); experiment: electrochemistry (on-chip bead-bound aptamer); 1 ng/mL; no significant signal (<15%); Buffer C: 100 mM Tris-HCl pH 7.4, 100 mM NaCl, 1 mM MgCl2, 5 mM KCl; room temperature (optimized conditions stated as pH 7.5, 100 mM salt); conditions: protein: commercial; label: 5'-ferrocene; 3'-biotin (on streptavidin magnetic beads); hairpin
IL-6, sequence (P05231 30-212): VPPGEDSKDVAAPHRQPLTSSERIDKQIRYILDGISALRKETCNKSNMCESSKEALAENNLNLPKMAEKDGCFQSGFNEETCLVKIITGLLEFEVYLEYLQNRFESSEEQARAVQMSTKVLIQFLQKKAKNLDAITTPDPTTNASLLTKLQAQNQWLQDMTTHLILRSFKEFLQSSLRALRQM

[3] = target: TNF-α (UniProt P01375 77-233); experiment: as above; conditions: protein: commercial; chain copies: 3; label: 5'-ferrocene; 3'-biotin (on streptavidin magnetic beads); hairpin
TNF-α, sequence (P01375 77-233): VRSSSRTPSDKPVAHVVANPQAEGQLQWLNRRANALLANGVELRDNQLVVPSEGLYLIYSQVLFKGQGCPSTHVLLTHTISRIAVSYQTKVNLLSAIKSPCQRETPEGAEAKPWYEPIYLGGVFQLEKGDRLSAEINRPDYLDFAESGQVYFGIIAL

[4] = target: interferon gamma (IFN-γ) (human, UniProt P01579 24-166); experiment: electrochemistry (SWV, on-chip bead-bound aptamer); 1 mM Mg2+, 5 mM K+; from calibration-curve midpoint (100 pg/mL) (so in the source); Buffer C: 100 mM Tris-HCl pH 7.4, 100 mM NaCl, 1 mM MgCl2, 5 mM KCl; room temperature (optimized conditions stated as pH 7.5, 100 mM salt); conditions: protein: recombinant; chain copies: 2; label: 5'-ferrocene; 3'-biotin (on streptavidin magnetic beads); hairpin
interferon gamma (IFN-γ), sequence (P01579 24-166): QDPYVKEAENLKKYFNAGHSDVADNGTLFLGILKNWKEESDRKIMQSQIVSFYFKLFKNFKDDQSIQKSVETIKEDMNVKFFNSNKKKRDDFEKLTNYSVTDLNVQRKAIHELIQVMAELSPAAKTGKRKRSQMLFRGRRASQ

## GGGGTTGGTTGTGTTGGGTGTTGTGTCCAACCCC (structured_DNA) [Fc-labeled IFN-γ hairpin aptamer (MB-aptamer)]
[1]
  binding result: no binding
[2]
  binding result: no binding
[3]
  binding result: no binding
[4]
  Ka: ~2.1e+10 M⁻¹
